Target: Recombinant human PDK2 (pyruvate dehydrogenase kinase 2) (human)
Assay: dynamic light scattering

stoichiometry N: 2
Substance: Recombinant human PDK2 (pyruvate dehydrogenase kinase 2) (enzyme)

From paper PMC5553292
